This is an account of results in patent US20120039865A1 (YALE UNIVERSITY, published 2012).

Broadly, the EC50 (read off the curve) is the midpoint of the concentration-response curve. Lower therefore signals higher potency in that assay. As usually defined, the Kd is the concentration at which binding is half-saturated. A lower Kd goes with tighter binding.

The target in assay [1] is T1, rat sortilin (Sort1) on E18 rat cortical neurons (rat, UniProt O54861 74-825).
T1 construct: Native receptor on cultured rat neurons
T1 sequence: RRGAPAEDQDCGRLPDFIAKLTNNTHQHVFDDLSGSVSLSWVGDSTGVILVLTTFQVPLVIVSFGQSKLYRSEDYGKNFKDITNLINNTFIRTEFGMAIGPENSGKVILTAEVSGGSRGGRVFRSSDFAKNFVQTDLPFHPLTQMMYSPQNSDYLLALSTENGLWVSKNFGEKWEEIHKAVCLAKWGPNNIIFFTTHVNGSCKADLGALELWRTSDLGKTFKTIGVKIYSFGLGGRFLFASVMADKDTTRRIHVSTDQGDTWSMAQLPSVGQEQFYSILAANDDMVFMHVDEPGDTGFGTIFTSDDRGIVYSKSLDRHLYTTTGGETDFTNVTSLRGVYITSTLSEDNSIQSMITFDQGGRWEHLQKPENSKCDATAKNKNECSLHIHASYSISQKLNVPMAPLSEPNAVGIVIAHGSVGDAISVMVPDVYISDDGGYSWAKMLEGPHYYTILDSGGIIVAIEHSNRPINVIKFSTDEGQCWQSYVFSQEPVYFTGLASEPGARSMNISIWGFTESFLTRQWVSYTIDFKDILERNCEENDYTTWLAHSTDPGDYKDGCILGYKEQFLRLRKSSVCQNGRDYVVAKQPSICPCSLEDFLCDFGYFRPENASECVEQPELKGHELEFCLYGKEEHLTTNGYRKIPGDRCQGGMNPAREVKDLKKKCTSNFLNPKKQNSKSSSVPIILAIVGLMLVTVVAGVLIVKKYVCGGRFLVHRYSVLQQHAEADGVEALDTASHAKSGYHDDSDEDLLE
Description: AP staining of cultured E18 rat cortical neurons (the neuronal PGRN binding site is identified by the filing as Sort1). How it is done: Rat (Sprague-Dawley) cortical neurons were isolated from E18 embryos and cultured in vitro for 3-21 days. Cultures were maintained in Neurobasal-A medium supplemented with B27, GLUTAMAX™ (2 mM), sodium pyruvate (1 mM), penicillin, and streptomycin. The binding of 10 nM AP-PGRN or 10 nM AP was detected as a dark reaction product produced by alkaline phosphatase (AP). Binding was measured as follows. The AP tagged ligand (in NBA) was incubated with the cortical neurons for 1 hr at 4° C., washed three times with HBH buffer, fixed with formaldehyde, and after washing again with HBH the neurons were incubated in a 67° C. oven to inactivate the endogenous AP. The tagged AP was then visualized using AP substrate 5-bromo-4-chloro-3-indolyl phosphate/nitro blue tetrazolium, which results in a dark precipitate. […] The addition of 100 nM Flag-PGRN displaced 10 nM AP-PGRN (FIG. 1C, middle panel).

For assay [2], the target named is T2, mouse sortilin-1 (Sort1; GenBank Accession No. NM 019972) expressed in COS-7 cells (mouse, UniProt Q6PHU5 74-825).
T2 construct: cDNA clone from a mouse library, transfected into COS-7 cells; also called PGRN-R; PGRN receptor
T2 sequence: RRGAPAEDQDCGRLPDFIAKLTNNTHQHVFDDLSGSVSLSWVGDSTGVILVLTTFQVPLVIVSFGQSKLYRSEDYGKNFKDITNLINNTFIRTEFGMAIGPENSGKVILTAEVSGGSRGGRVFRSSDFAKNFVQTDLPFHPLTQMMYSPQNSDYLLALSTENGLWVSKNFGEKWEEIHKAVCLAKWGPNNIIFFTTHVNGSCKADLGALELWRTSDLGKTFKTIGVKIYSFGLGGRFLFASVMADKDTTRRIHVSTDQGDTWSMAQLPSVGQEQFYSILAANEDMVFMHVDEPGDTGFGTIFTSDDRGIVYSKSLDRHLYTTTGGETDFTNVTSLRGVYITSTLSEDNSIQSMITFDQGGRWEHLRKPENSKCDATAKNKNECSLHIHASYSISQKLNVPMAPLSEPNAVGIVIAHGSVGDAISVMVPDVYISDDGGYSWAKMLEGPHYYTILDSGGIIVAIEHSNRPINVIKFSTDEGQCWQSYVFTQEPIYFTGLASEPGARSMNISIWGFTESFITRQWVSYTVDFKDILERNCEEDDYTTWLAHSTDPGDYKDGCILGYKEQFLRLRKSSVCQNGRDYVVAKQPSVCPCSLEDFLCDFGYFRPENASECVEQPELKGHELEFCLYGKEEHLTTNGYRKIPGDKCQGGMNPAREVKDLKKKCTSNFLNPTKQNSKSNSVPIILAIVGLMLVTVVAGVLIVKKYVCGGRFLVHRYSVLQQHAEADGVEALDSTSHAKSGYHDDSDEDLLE
Description: AP staining of transfected COS-7 cells.

For assay [3], the target named is T3, human SorLA (GenBank Accession No. U60975) expressed in COS-7 cells (human, UniProt Q92673 82-2214).
T3 construct: whole, on cells
Description: AP staining of transfected COS-7 cells.

Assay [4] concerns the target T4, mouse SorCS1 (GenBank Accession No. BC007486) expressed in COS-7 cells (mouse, UniProt Q9JLC4 34-1167).
T4 construct: whole, on cells
T4 sequence (looked up): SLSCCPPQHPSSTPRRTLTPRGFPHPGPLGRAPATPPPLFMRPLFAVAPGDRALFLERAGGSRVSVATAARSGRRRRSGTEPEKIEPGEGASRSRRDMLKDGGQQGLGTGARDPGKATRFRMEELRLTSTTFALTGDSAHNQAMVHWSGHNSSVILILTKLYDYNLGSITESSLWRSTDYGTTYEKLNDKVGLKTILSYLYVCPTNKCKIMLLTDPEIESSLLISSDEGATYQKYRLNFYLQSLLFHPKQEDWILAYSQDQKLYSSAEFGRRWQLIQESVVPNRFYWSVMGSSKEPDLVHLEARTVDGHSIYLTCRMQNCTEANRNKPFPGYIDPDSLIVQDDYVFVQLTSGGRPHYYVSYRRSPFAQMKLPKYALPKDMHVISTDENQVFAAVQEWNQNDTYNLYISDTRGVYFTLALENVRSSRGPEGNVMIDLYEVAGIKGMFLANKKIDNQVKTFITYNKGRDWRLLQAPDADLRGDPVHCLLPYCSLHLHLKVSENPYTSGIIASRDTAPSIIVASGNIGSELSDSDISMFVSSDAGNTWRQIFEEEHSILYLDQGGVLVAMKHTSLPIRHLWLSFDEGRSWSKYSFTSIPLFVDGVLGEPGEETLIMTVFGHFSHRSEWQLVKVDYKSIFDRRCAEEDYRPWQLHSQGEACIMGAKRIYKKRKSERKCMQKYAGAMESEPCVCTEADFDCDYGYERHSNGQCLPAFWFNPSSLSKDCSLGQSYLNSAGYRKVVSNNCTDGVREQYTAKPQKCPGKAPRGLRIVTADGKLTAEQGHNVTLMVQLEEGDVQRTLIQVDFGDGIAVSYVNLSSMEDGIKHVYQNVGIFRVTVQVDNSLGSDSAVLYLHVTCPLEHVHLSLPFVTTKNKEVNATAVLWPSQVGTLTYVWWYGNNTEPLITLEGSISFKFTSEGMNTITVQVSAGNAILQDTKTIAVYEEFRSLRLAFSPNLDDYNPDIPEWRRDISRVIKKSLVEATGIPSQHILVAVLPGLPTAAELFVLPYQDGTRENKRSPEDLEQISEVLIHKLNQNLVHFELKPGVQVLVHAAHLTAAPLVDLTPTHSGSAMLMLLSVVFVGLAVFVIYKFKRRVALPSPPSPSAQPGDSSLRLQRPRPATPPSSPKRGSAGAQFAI
Description: AP staining of transfected COS-7 cells.

The target of assay [5] is T2, mouse sortilin-1 (Sort1; GenBank …). Description: saturation binding of AP-tagged ligand to COS-7 cells transfected with sortilin (PGRN-R), bound AP read as optical density of the reaction product. How it is done: (§1) FIG. 2B is a graph depicting the saturation analysis of binding of AP-PGRN to COS-7 cells transfected with the PRGN-R, sortilin. The binding of AP-PGRN, measured by the optical density (OD units) of AP ligand bound, was determined as a function of ligand concentration (nM).
(§2) To determine the molecular nature of the neuronal binding site of PGRN, expression cloning experiments utilizing AP-PGRN as a tagged ligand were conducted. COS-7 (ATCC No. CRL-1651) cells were transfected with expression vectors containing mouse cDNAs using FUGENE® 6 according to manufacturer's specifications (Roche). An arrayed adult mouse brain cDNA library (OriGene) of 225,000 clones was screened in pools of 5,000 at a time, as well as a library consisting of 352 individual preparations of cDNAs encoding transmembrane proteins (GFC-transfection array panel, OriGene). […] In both cases, unlabeled 100 nM PGRN displaced binding (FIG. 2A, lower-right panel, and FIG. 3A, right panel).

The target in assay [6] is T1, rat sortilin (Sort1) on E18 rat …. Description: saturation binding of AP-PGRN to cultured cortical neurons (FIG. 1D); neuronal PGRN binding sites, identified by the filing as Sort1; cultured cortical neurons (FIG. 1D), species not stated.
The target of assay [7] is T2, mouse sortilin-1 (Sort1; GenBank …). Description: saturation binding of AP-PGRN to Sort1-transfected COS-7 cells, bound AP activity (OD); Sort1-transfected COS-7 cells, FIG. 2B. How it is done:
as §1, §2

T3 sequence (Q92673 82-2214, one chain of several): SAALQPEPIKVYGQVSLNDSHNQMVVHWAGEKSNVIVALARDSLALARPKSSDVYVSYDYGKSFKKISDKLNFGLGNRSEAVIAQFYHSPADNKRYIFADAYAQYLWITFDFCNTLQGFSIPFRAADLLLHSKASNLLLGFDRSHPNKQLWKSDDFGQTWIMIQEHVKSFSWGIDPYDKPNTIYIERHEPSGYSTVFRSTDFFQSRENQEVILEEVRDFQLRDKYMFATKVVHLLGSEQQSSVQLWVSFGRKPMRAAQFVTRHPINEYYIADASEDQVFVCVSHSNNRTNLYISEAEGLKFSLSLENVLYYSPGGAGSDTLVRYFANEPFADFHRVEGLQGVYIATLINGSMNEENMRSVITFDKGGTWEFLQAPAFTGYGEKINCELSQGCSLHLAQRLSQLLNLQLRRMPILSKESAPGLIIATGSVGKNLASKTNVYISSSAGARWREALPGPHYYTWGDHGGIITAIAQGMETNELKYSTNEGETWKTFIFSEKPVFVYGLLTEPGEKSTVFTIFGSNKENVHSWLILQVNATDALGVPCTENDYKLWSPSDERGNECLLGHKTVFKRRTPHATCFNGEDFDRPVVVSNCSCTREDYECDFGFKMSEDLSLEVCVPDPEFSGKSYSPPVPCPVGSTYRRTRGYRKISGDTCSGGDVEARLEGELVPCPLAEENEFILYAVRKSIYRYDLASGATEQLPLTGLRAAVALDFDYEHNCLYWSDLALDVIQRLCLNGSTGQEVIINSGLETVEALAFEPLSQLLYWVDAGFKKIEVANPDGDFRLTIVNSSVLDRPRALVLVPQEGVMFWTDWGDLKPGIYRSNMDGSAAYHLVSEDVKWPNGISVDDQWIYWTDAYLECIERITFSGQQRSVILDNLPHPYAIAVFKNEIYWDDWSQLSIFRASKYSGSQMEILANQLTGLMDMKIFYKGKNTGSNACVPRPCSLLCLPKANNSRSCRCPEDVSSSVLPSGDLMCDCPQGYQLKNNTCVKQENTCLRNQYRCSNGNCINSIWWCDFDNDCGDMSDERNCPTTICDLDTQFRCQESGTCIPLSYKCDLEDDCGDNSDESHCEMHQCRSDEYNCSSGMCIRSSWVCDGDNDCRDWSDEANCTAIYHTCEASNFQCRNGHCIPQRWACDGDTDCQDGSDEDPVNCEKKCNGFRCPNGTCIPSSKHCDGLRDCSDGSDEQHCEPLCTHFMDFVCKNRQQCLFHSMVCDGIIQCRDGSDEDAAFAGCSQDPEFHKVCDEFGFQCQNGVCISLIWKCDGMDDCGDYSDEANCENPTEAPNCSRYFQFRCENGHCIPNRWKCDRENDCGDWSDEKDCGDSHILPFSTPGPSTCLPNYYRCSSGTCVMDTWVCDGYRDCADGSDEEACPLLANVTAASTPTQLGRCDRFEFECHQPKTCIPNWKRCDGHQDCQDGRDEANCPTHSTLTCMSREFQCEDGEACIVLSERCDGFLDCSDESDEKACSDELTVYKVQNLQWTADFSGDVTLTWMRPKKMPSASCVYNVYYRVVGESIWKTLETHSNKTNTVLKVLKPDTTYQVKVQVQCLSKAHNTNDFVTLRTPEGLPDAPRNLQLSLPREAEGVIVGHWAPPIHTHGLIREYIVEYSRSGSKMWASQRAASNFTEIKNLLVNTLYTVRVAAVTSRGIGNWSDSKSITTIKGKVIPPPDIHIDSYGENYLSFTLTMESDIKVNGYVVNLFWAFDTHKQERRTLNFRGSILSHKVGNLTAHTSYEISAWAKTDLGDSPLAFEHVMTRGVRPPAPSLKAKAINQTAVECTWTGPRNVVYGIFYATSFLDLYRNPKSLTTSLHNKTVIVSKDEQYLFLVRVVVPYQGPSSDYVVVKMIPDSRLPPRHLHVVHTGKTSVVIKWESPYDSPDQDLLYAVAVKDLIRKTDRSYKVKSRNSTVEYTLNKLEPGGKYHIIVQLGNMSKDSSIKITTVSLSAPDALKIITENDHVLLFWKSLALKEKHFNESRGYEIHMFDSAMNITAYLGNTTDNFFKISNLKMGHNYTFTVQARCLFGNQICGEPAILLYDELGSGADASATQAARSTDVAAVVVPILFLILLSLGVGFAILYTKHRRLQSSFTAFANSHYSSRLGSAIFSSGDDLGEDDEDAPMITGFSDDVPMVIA

B1: alkaline-phosphatase (AP) alone (enzyme, UniProt P05187 23-511, looked up)
chain: IIPVEEENPDFWNREAAEALGAAKKLQPAQTAAKNLIIFLGDGMGVSTVTAARILKGQKKDKLGPEIPLAMDRFPYVALSKTYNVDKHVPDSGATATAYLCGVKGNFQTIGLSAAARFNQCNTTRGNEVISVMNRAKKAGKSVGVVTTTRVQHASPAGTYAHTVNRNWYSDADVPASARQEGCQDIATQLISNMDIDVILGGGRKYMFRMGTPDPEYPDDYSQGGTRLDGKNLVQEWLAKRQGARYVWNRTELMQASLDPSVTHLMGLFEPGDMKYEIHRDSTLDPSLMEMTEAALRLLSRNPRGFFLFVEGGRIDHGHHESRAYRALTETIMFDDAIERAGQLTSEEDTLSLVTADHSHVFSFGGYPLRGSSIFGLAPGKARDRKAYTVLLYGNGPGYVLKDGARPDVTESESGSPEYRQQSAVPLDEETHAGEDVAVFARGPQAHLVHGVQEQTFIAHVMAFAACLEPYTACDLAPPAGTTDAAHPG
notes: Control for the AP tag
On to B1, for which the binding result in assay [1] was “no binding (tested: 10 nM)”; in assay [2] it was “no binding (tested: 20 nM)”.

B2: AP-PGRN (alkaline phosphatase fused to human progranulin, huPGRN, GenBank Accession No. BC010577) (ligand)
chain: TRCPDGQFCPVACCLDPGGASYSCCRPLLDKWPTTLSRHLGGPCQVDAHCSAGHSCIFTVSGTSSCCPFPEAVACGDGHHCCPRGFHCSADGRSCFQRSGNNSVGAIQCPDSQFECPDFSTCCVMVDGSWGCCPMPQASCCEDRVHCCPHGAFCDLVHTRCITPTGTHPLAKKLPAQRTNRAVALSSSVMCPDARSRCPDGSTCCELPSGKYGCCPMPNATCCSDHLHCCPQDTVCDLIQSKCLSKENATTDLLTKLPAHTVGDVKCDMEVSCPDGYTCCRLQSGAWGCCPFTQAVCCEDHIHCCPAGFTCDTQKGTCEQGPHQVPWMEKAPAHLSLPDPQALKRDVPCDNVSSCPSSDTCCQLTSGEWGCCPIPEAVCCSDHQHCCPQGYTCVAEGQCQRGSEIVAGLEKMPARRASLSHPRDIGCDQHTSCPVGQTCCPSLGGSWACCQLPHAVCCEDRQHCCPAGYTCNVKARSCEKEVVSAQPATFLARSPHVGVKDVECGEGHFCHDNQTCCRDNRQGWACCPYRQGVCCADRRHCCPAGFRCAARGTKCLRREAPRWDAPLRDPALRQLL
notes: Made in HEK293T cells from pAPtag-5; also called AP-PRGN; AP tagged ligand; not shown: alkaline phosphatase (AP) tag of expression vector pAPtag-5
As to B2, the binding result in assay [3] and in assay [4] was “no binding (tested: 120 nM)” in each case. Besides, the “EC50 (read off the curve)” value in assay [5] is roughly 3 nM. For the same molecule, the Kd is roughly 20 nM in assay [6] and 6 nM in assay [7].
